The series deals with the molecule itself. Description: TEM, negative stain, TES buffer pH 7, 24 h at 37 C; non-specific self-association (no fibrils). On the procedure:
FIG. 5A and FIG. 5B are TEM images of the non-specific aggregates of Col108r. The fibril formation was initiated by transferring Col108r in 5 mM Acetic Acid (pH 4.5) to TES buffer (pH 7) and incubated for 24 hr at 37° C. The grids were stained with 1% sodium phosphotungstate; magnification factor 10,000; the scale bar is 200 nm. The two images were taken for two different preparations under identical treatments.

Consider one protein from patent US20200123231A1 (RESEARCH FOUNDATION OF THE CITY UNIVERSITY OF NEW YORK, published 2020).

B1: peptide Col108r (Col-domain, randomized Col-domain and reversed Col-domain units) (peptide)
chain: GPCCGPPGPPGPPGPPGERGPPGPQGARGLPGAPGQMGPRGLPGERGRPGAPGPAGARGEPGAPGSKGDTGAKGEPGPVGVQGPPGPAGEEGKRGARGEPGPTGPAGPKGSPGEAGRPGEAGLPGPPGPPGPPGPPGMQGLPGPRGAPGRAGPEGRAGRPGPAGLPGEQGRAGRPGPPGAEGAEGKPGAPGSPGPRGLPGPAGDTGPEGQVGARGPKGEPGTPGRAGEPGEPGVPGKAGPKGESGPPGPPGPPGPPGREGPPGQPGRAGPLGPAGMQGRPGPLGREGPRGPAGAPGRAGPEGPAGKSGTDGKAGPEGVPGQVGPPGAPGEEGRKGRAGPEGTPGAPGKPGPSGAEGPRGAEGPLGPPGPPGPPGPPGPCCGYIPEAPRDGQAYVRKDGEWVLLSTFL
notes: Forms a collagen triple helix (trimer) with Cys-knots and foldon
As for B1, the binding result is “binds”.
